# Test results as given in patent US20200199241A1 (Chugai, published 2020).
# Changes are numbered by the printed parent chain.
# B1: IgG1-F1245 (antibody)
# heavy: QVQLQESGPGLVKPSETLSLTCAVSGHSISHDHAWSWVRQPPGEGLEWIGFISYSGITNYNPSLQGRVTISRDNSKNTLYLQMNSLRAEDTAVYYCARSLARTTAMDYWGEGTLVTVSSASTKGPSVFPLAPSSKSTSGGTAALGCLVKDYFPEPVTVSWNSGALTSGVHTFPAVLQSSGLYSLSSVVTVPSSSLGTQTYICNVNHKPSNTKVDKKVEPKSCDKTHTCPPCPAPELRGGPKVFLFPPKPKDTLYITREPEVTCVVVDVSHEDPEVKFNWYVDGVEVHNAKTKPREEQYNSTYRVVSVLTVLHQDWLNGKEYKCKVSNKALPAPIEKTISKAKGQPREPQVYTLPPSRDELTKNQVSLTCLVKGFYPSDIAVEWESNGQPENNYKTTPPVLDSDGSFFLYSKLTVDKSRWQQGNVFSCSVMHEALHYHVTRKELSLSP
# light: not shown
# notes: EU numbering; copies: 2 + 2
# B2: IgG1-F1250 (antibody)
# heavy: B1 heavy with E258Q
# light: not shown
# notes: EU numbering; copies: 2 + 2
# B3: IgG1-F1281 (antibody)
# heavy: B1 heavy with T256S, E258G, H435D, R440K, E442D
# light: not shown
# notes: EU numbering; copies: 2 + 2
# B4: IgG1-F1273 (antibody)
# heavy: B1 heavy with T256S, E258Q, R440K, E442D
# light: not shown
# notes: EU numbering; copies: 2 + 2
# B5: IgG1-F1305 (antibody)
# heavy: B1 heavy with T256S, E258T, H435D, E442D
# light: not shown
# notes: EU numbering; copies: 2 + 2
# B6: IgG1-F1256 (antibody)
# heavy: B1 heavy with T256S, E258T, Q313H
# light: not shown
# notes: EU numbering; copies: 2 + 2
# B7: IgG1-F1277 (antibody)
# heavy: B1 heavy with T256S, E258A, H435D
# light: not shown
# notes: EU numbering; copies: 2 + 2
# B8: IgG1-F1249 (antibody)
# heavy: B1 heavy with T256S, E258Q
# light: not shown
# notes: EU numbering; copies: 2 + 2
# B9: IgG1-F1248 (antibody)
# heavy: B1 heavy with T252V
# light: not shown
# notes: EU numbering; copies: 2 + 2
# B10: IgG1-F1258 (antibody)
# heavy: B1 heavy with T256S, E258T, T309A, Q313H
# light: not shown
# notes: EU numbering; copies: 2 + 2
# B11: IgG1-F1299 (antibody)
# heavy: B1 heavy with T256S, V438Y, R440K, E442D
# light: not shown
# notes: EU numbering; copies: 2 + 2
# B12: IgG1-F1257 (antibody)
# heavy: B1 heavy with T256S, E258T, T309A, Q313A
# light: not shown
# notes: EU numbering; copies: 2 + 2
# B13: IgG1-F1292 (antibody)
# heavy: B1 heavy with Y254M, T256S, E258T, H435D, Y436W
# light: not shown
# notes: EU numbering; copies: 2 + 2
# B14: IgG1-F1284 (antibody)
# heavy: B1 heavy with T256S, E258N, H435D, R440K, E442D
# light: not shown
# notes: EU numbering; copies: 2 + 2
# B15: IgG1-F1286 (antibody)
# heavy: B1 heavy with E258T, H435D
# light: not shown
# notes: EU numbering; copies: 2 + 2
# B16: IgG1-F1255 (antibody)
# heavy: B1 heavy with T256S, E258T, Q313A
# light: not shown
# notes: EU numbering; copies: 2 + 2
# B17: IgG1-F1307 (antibody)
# heavy: B1 heavy with T256S, E258T, V424A, S426A, R440Q, E442S
# light: not shown
# notes: EU numbering; copies: 2 + 2
# B18: IgG1-F1301 (antibody)
# heavy: B1 heavy with T256S, V438F, R440K, E442D
# light: not shown
# notes: EU numbering; copies: 2 + 2
# B19: IgG1-F1267 (antibody)
# heavy: B1 heavy with T256A, E258T
# light: not shown
# notes: EU numbering; copies: 2 + 2
# B20: IgG1-F1279 (antibody)
# heavy: B1 heavy with T256S, E258G, R440K, E442D
# light: not shown
# notes: EU numbering; copies: 2 + 2
# B21: IgG1-F1306 (antibody)
# heavy: B1 heavy with T256S, E258T, H435D, R440K
# light: not shown
# notes: EU numbering; copies: 2 + 2
# B22: IgG1-F1280 (antibody)
# heavy: B1 heavy with T256S, E258G, H435D
# light: not shown
# notes: EU numbering; copies: 2 + 2
# B23: IgG1-F1296 (antibody)
# heavy: B1 heavy with T256S, H435D, V438Y
# light: not shown
# notes: EU numbering; copies: 2 + 2
# B24: IgG1-F1268 (antibody)
# heavy: B1 heavy with T256S, E258T, H435D
# light: not shown
# notes: EU numbering; copies: 2 + 2
# B25: IgG1-F1304 (antibody)
# heavy: B1 heavy with T256S, H435D, V438F, R440K, E442D
# light: not shown
# notes: EU numbering; copies: 2 + 2
# B26: IgG1-F1303 (antibody)
# heavy: B1 heavy with T256S, H435D, V438T, R440K, E442D
# light: not shown
# notes: EU numbering; copies: 2 + 2
# B27: IgG1-F1275 (antibody)
# heavy: B1 heavy with T256S, E258Q, H435D, R440K, E442D
# light: not shown
# notes: EU numbering; copies: 2 + 2
# B28: IgG1-F1247 (antibody)
# heavy: B1 heavy with T252V, T256S
# light: not shown
# notes: EU numbering; copies: 2 + 2
# B29: IgG1-F1252 (antibody)
# heavy: B1 heavy with T252V, E258Q
# light: not shown
# notes: EU numbering; copies: 2 + 2
# B30: IgG1-F1302 (antibody)
# heavy: B1 heavy with T256S, H435D, V438Y, R440K, E442D
# light: not shown
# notes: EU numbering; copies: 2 + 2
# B31: IgG1-F1274 (antibody)
# heavy: B1 heavy with T256S, E258Q, H435D
# light: not shown
# notes: EU numbering; copies: 2 + 2
# B32: IgG1-F1276 (antibody)
# heavy: B1 heavy with T256S, E258A, R440K, E442D
# light: not shown
# notes: EU numbering; copies: 2 + 2
# B33: IgG1-F1278 (antibody)
# heavy: B1 heavy with T256S, E258A, H435D, R440K, E442D
# light: not shown
# notes: EU numbering; copies: 2 + 2
# B34: IgG1-F1289 (antibody)
# heavy: B1 heavy with T256S, H435D
# light: not shown
# notes: EU numbering; copies: 2 + 2
# B35: IgG1-F1285 (antibody)
# heavy: B1 heavy with E258T, R440K, E442D
# light: not shown
# notes: EU numbering; copies: 2 + 2
# B36: IgG1-F1294 (antibody)
# heavy: B1 heavy with T256S, V438T
# light: not shown
# notes: EU numbering; copies: 2 + 2
# B37: IgG1-F1264 (antibody)
# heavy: B1 heavy with T256S, E258A
# light: not shown
# notes: EU numbering; copies: 2 + 2
# B38: IgG1-F1262 (antibody)
# heavy: B1 heavy with T256S, E258T, R440K
# light: not shown
# notes: EU numbering; copies: 2 + 2
# B39: IgG1-F1283 (antibody)
# heavy: B1 heavy with T256S, E258N, H435D
# light: not shown
# notes: EU numbering; copies: 2 + 2
# B40: IgG1-F1263 (antibody)
# heavy: B1 heavy with T256S, E258T, R440K, E442D
# light: not shown
# notes: EU numbering; copies: 2 + 2
# B41: IgG1-F1308 (antibody)
# heavy: B1 heavy with T256S, E258T, V424L, S426L, R440Q, E442S
# light: not shown
# notes: EU numbering; copies: 2 + 2
# B42: IgG1-F1295 (antibody)
# heavy: B1 heavy with T256S, V438F
# light: not shown
# notes: EU numbering; copies: 2 + 2
# B43: IgG1-F1282 (antibody)
# heavy: B1 heavy with T256S, E258N, R440K, E442D
# light: not shown
# notes: EU numbering; copies: 2 + 2
# B44: IgG1-F1259 (antibody)
# heavy: B1 heavy with T256S, E258T, T309Q, Q313A
# light: not shown
# notes: EU numbering; copies: 2 + 2
# B45: IgG1-F1261 (antibody)
# heavy: B1 heavy with T256S, E258T, E442D
# light: not shown
# notes: EU numbering; copies: 2 + 2
# B46: IgG1-F1298 (antibody)
# heavy: B1 heavy with T256S, H435D, V438F
# light: not shown
# notes: EU numbering; copies: 2 + 2
# B47: IgG1-F1309 (antibody)
# heavy: B1 heavy with T256S, E258T, R440A, E442A
# light: not shown
# notes: EU numbering; copies: 2 + 2
# B48: IgG1-F1290 (antibody)
# heavy: B1 heavy with T256S, H435D, R440K, E442D
# light: not shown
# notes: EU numbering; copies: 2 + 2
# B49: IgG1-F1287 (antibody)
# heavy: B1 heavy with E258T, H435D, R440K, E442D
# light: not shown
# notes: EU numbering; copies: 2 + 2
# B50: IgG1-F1297 (antibody)
# heavy: B1 heavy with T256S, H435D, V438T
# light: not shown
# notes: EU numbering; copies: 2 + 2
# B51: IgG1-F1253 (antibody)
# heavy: B1 heavy with T256S, E258T, T309A
# light: not shown
# notes: EU numbering; copies: 2 + 2
# B52: IgG1-F1260 (antibody)
# heavy: B1 heavy with T256S, E258T, T309Q, Q313H
# light: not shown
# notes: EU numbering; copies: 2 + 2
# B53: IgG1-F1271 (antibody)
# heavy: B1 heavy with T256A, E258T, H435D
# light: not shown
# notes: EU numbering; copies: 2 + 2
# B54: IgG1-F1266 (antibody)
# heavy: B1 heavy with T256S, E258N
# light: not shown
# notes: EU numbering; copies: 2 + 2
# B55: IgG1-F1291 (antibody)
# heavy: B1 heavy with T256S, E258T, H435D, R440Q, E442S
# light: not shown
# notes: EU numbering; copies: 2 + 2
# B56: IgG1-F1246 (antibody)
# heavy: B1 heavy with T252V, E258T
# light: not shown
# notes: EU numbering; copies: 2 + 2
# B57: IgG1-F1265 (antibody)
# heavy: B1 heavy with T256S, E258G
# light: not shown
# notes: EU numbering; copies: 2 + 2
# B58: IgG1-F1300 (antibody)
# heavy: B1 heavy with T256S, V438T, R440K, E442D
# light: not shown
# notes: EU numbering; copies: 2 + 2
# B59: IgG1-F1293 (antibody)
# heavy: B1 heavy with T256S, V438Y
# light: not shown
# notes: EU numbering; copies: 2 + 2
# B60: IgG1-F1251 (antibody)
# heavy: B1 heavy with T252V, T256S, E258Q
# light: not shown
# notes: EU numbering; copies: 2 + 2
# Biological target: T1, soluble human FcRn complexed with β2-microglobulin (human, UniProt P61769 21-119, limits assumed)
# T1 construct: also called hFcRn
# Assay: Biacore SPR, pH 7.0;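 also: test antibodies captured on a Protein L chip with human FcRn flowed over as analyte, KD obtained as the ratio of dissociation to association rate constants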
# Description: A kinetic analysis of binding between human FcRn and the aforementioned antibodies was carried out using the BIACORE™ T100 or T200 surface plasmon resonance system (GE Healthcare). The antibodies being tested were captured on the CM4 Sensor Chip (GE Healthcare) on which a suitable amount of Protein L (ACTIGEN® protein (Alltech)) was suitably immobilized by amine coupling. Next, diluted human FcRn and a running buffer used as a blank were injected to allow the human FcRn to interact with the antibody captured on the sensor chip. A buffer consisting of 50 mmol/L sodium phosphate, 150 mmol/L NaCl and 0.05% (w/v) polysorbate 20 (Tween 20®) (pH 7.0 or pH 7.4) was used for the running buffer, and each buffer was also used to dilute the human FcRn. 10 mmol/L glycine-HCl (pH 1.5) was used to regenerate the sensor chip. All measurements of binding were carried out at 25° C. The KD(M) of each antibody to human FcRn was calculated based on kinetics parameters, i.e., the association rate constant ka (1/Ms) and the dissociation rate constant kd (1/s) calculated from a sensorgram obtained by the measurement. The BIACORE™ T100 or T200 Evaluation Software (GE Healthcare) was used to calculate each parameter.
row,Kd [nM],Binder
1,82,B1
2,166,B2
3,174,B3
4,153,B4
5,205,B5
6,156,B6
7,169,B7
8,206,B8
9,120,B9
10,105,B10
11,150,B11
12,78.1,B12
13,424,B13
14,112,B14
15,157,B15
16,111,B16
17,144,B17
18,83,B18
19,150,B19
20,123,B20

row,Kd [nM],Binder
1,192,B21
2,209,B22
3,227,B23
4,200,B24
5,124,B25
6,210,B26
7,209,B27
8,145,B28
9,233,B29
10,215,B30
11,248,B31
12,102,B32
13,140,B33
14,333,B34
15,93.6,B35
16,200,B36
17,127,B37
18,126,B38
19,134,B39
20,124,B40

row,Kd [nM],Binder
1,206,B41
2,98.4,B42
3,76.9,B43
4,44.6,B44
5,135,B45
6,147,B46
7,126,B47
8,111,B48
9,150,B49
10,250,B50
11,112,B51
12,65.3,B52
13,205,B53
14,99.9,B54
15,151,B55
16,173,B56
17,157,B57
18,163,B58
19,161,B59
20,277,B60
